{"source": "patent US20210355194A1", "about": "(TWIST BIOSCIENCE, published 2021)", "binders": {"B1": {"name": "4-140 (VHH)", "VHH": "EVQLVESGGGLVQPGGSLRLSCAASGRTFSNAAMGWFRQAPGKEREFVARITWNGGSTFYADSVKGRFTISADNSKNTAYLQMNSLKPEDTAVYYCATTENPNPRWGQGTLVTVSS"}, "B2": {"name": "4-39 (VHH)", "VHH": "B1 VHH with T52L, N54T, G56A, T58R, F59N"}, "B3": {"name": "4-54 (VHH)", "VHH": "EVQLVESGGGLVQPGGSLRLSCAASGRTFSDARMGWFRQAPGKEREFVGAVSWSGGTTVYADSVKGRFTISADNSKNTAYLQMNSLKPEDTAVYYCATTEDPYPRWGQGTLVTVSS"}, "B4": {"name": "4-101 (VHH)", "VHH": "B1 VHH with T52L, N54T, G56A, T58R, F59S"}, "B5": {"name": "4-17 (VHH)", "VHH": "EVQLVESGGGLVQPGGSLRLSCAASGQLANFASYAMGWFRQAPGKEREFVAAITRSGSSTVYADSVKGRFTISADNSKNTAYLQMNSLKPEDTAVYYCATTMNPNPRWGQGTLVTVSS"}, "B6": {"name": "2-5 (antibody, V domains shown)", "VH": "EVQLLESGGGLVQPGGSLRLSCAASGFTFSDFAMAWVRQAPGKGLEWVSAISGSGDITYYADSVKGRFTISRDNSKNTLYLQMNSLRAEDTAVYYCAREADGLHSPWHFDLWGQGTLVTVSS", "VL": "DIQMTQSPSSLSASVGDRVTITCRASQSIHTYLNWYQQKPGKAPKLLIYAASALASGVPSRFSGSGSGTDFTLTISSLQPEDFATYYCQQSYSAPPYTFGQGTKVEIK", "notes": "also called variant 2-5"}, "B7": {"name": "2-2 (antibody, V domains shown)", "VH": "EVQLLESGGGLVQPGGSLRLSCAASGFTFSRHAMNWVRQAPGKGLEWVSGISGSGDETYYADSVKGRFTISRDNSKNTLYLQMNSLRAEDTAVYYCARDLPASYYDSSGYYWHNGMDVWGQGTLVTVSS", "VL": "DIQMTQSPSSLSASVGDRVTITCRASQTINTYLNWYQQKPGKAPKLLIYSASTLQSGVPSRFSGSGSGTDFTLTISSLQPEDFATYYCQQSYSTFTFGQGTKVEIK", "notes": "also called variant 2-2"}, "B8": {"name": "2-8 (antibody, V domains shown)", "VH": "B6 VH", "VL": "B6 VL with H30D"}, "B9": {"name": "2-5 (antibody, V domains shown)", "VH": "B6 VH", "VL": "B6 VL"}, "B10": {"name": "2-2 (antibody, V domains shown)", "VH": "B7 VH", "VL": "B7 VL"}, "B11": {"name": "2-4 (antibody, V domains shown)", "VH": "B6 VH", "VL": "B6 VL with H30D"}, "B12": {"name": "2-17 (antibody, V domains shown)", "VH": "EVQLLESGGGLVQPGGSLRLSCAASGFTFSNYAMSWVRQAPGKGLEWVSAISGSAGSTYYADSVKGRFTISRDNSKNTLYLQMNSLRAEDTAVYYCARVRQGLRRTWYYFDYWGQGTLVTVSS", "VL": "DIQMTQSPSSLSASVGDRVTITCTGTSSDVGSSNLVSWYQQKPGKAPKLLIYEGSKRPSGVPSRFSGSGSGTDFTLTISSLQPEDFATYYCCSYAGSLYVFGQGTKVEIK", "notes": "also called variant 2-17"}, "B13": {"name": "2-19 (antibody, V domains shown)", "VH": "EVQLLESGGGLVQPGGSLRLSCAASGFTFSSYTMSWVRQAPGKGLEWVSVISGSGGSTYYADSVKGRFTISRDNSKNTLYLQMNSLRAEDTAVYYCAREGYRDYLWYFDLWGQGTLVTVSS", "VL": "DIQMTQSPSSLSASVGDRVTITCTGTSTDVGSYNLVSWYQQKPGKAPKLLIYEGTKRPSGVPSRFSGSGSGTDFTLTISSLQPEDFATYYCCSYAGSYTSVVFGQGTKVEIK", "notes": "also called variant 2-19"}, "B14": {"name": "2-2 (second entry, printed after 2-19) (antibody, V domains shown)", "VH": "EVQLLESGGGLVQPGGSLRLSCAASGFTFSSYDMSWVRQAPGKGLEWVSVISGSGGSTYYADSVKGRFTISRDNSKNTLYLQMNSLRAEDTAVYYCAKGPLVGWYFDLWGQGTLVTVSS", "VL": "B13 VL with T28S, D29N, Y98S, T99S, S100F"}, "B15": {"name": "2-12 (antibody, V domains shown)", "VH": "EVQLLESGGGLVQPGGSLRLSCAASGFTFSDYPMNWVRQAPGKGLEWVSTISGSGGITFYADSVKGRFTISRDNSKNTLYLQMNSLRAEDTAVYYCVRHDEYSFDYWGQGTLVTVSS", "VL": "B6 VL with H30D, T31N, A50G, A51V, A55Q, Y92H, T98F", "notes": "also called variant 2-12"}, "B16": {"name": "2-13 (antibody, V domains shown)", "VH": "B15 VH with T50A, G56D, I57N, F59Y", "VL": "B6 VL with H30D, A50G, A55E, Y92H, T98F", "notes": "also called variant 2-13"}}, "note": "Changes are numbered by the printed parent chain. Values joined by “and” are separate entries in the source; they are usually repeats but may differ in a detail not shown here. Equal values may be shown once."}
{"target": "T1, human ACE2 (human, UniProt Q9BYF1 18-740)", "T1 sequence (Q9BYF1 18-740 limits assumed)": "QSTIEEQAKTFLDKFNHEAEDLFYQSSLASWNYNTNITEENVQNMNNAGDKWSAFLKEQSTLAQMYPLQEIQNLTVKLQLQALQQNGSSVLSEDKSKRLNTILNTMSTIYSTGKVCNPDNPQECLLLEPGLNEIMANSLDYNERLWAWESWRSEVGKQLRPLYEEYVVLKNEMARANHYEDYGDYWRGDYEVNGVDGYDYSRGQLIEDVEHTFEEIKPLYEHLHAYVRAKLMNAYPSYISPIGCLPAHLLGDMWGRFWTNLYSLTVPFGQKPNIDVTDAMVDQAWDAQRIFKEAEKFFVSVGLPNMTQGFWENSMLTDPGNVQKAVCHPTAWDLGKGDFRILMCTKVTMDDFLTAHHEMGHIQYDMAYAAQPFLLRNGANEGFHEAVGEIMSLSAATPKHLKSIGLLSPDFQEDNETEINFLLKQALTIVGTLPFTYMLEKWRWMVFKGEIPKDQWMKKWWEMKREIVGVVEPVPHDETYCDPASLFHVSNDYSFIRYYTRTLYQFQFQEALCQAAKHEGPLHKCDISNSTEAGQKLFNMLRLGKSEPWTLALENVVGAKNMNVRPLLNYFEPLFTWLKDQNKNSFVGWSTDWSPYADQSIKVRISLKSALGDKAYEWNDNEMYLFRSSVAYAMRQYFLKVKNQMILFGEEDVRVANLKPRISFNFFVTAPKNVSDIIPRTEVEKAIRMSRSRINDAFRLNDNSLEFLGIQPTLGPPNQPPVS", "test": "not given", "units": {"IC50": "nM"}}
{"binder": "B1", "IC50": 3.07}
{"binder": "B2", "IC50": 1.15}
{"binder": "B3", "IC50": 2}
{"binder": "B4", "IC50": 0.568}
{"binder": "B5", "IC50": 0.721}
{"target": "T1, human ACE2", "test": "not given", "remark": "another data set of the same source"}
{"binder": "B1", "Kd": "8.9 nM"}
{"binder": "B2", "Kd": "17.5 nM"}
{"binder": "B3", "Kd": "645 nM"}
{"binder": "B4", "Kd": "5.8 nM"}
{"binder": "B5", "Kd": "18.8 nM and 30.6 nM"}
{"target": "T2, SARS-CoV-2 S1 protein (SARS-CoV-2, UniProt P0DTC2 16-685)", "T2 construct": "also called SARS-CoV-2 Spike Glycoprotein S1; S1 (subunit 1)", "test": "Carterra SPR, DB format, S1", "units": {"Kd": "nM"}}
{"binder": "B6", "Kd": 2.8}
{"binder": "B7", "Kd": 11.7}
{"target": "T3, SARS-CoV-2 Spike Glycoprotein S1 (SARS-CoV-2, UniProt P0DTC2 16-685)", "T3 construct": "also called S1 Monomer", "test": "ELISA, plate coated with S1", "units": {"S1 Monomer": "nM"}}
{"binder": "B8", "S1 Monomer": 1.52}
{"binder": "B9", "S1 Monomer": 0.17}
{"binder": "B10", "S1 Monomer": 0.13}
{"binder": "B11", "S1 Monomer": 1.58}
{"target": "T2, SARS-CoV-2 S1 protein", "test": "Carterra SPR, Fc capture, S1", "units": {"Kd": "nM"}}
{"binder": "B6", "Kd": 1.9}
{"binder": "B7", "Kd": 58.3}
{"target": "T2, SARS-CoV-2 S1 protein", "test": "phage ELISA screen on S1, mean", "units": {"ELISA(Avg)": "fold over background"}}
{"binder": "B12", "ELISA(Avg)": 3.5}
{"binder": "B13", "ELISA(Avg)": 21.7}
{"binder": "B14", "ELISA(Avg)": 12.8}
{"target": "T2, SARS-CoV-2 S1 protein", "test": "phage ELISA screen on S1, mean", "remark": "another data set of the same source", "units": {"ELISA(Avg)": "fold over background"}}
{"binder": "B12", "ELISA(Avg)": 3.5}
{"binder": "B13", "ELISA(Avg)": 21.7}
{"binder": "B14", "ELISA(Avg)": 12.8}
{"binder": "B6", "ELISA(Avg)": 30.8}
{"binder": "B7", "ELISA(Avg)": 23.4}
{"binder": "B15", "ELISA(Avg)": 18.2}
{"binder": "B16", "ELISA(Avg)": 19.1}
{"target": "T4, SARS-CoV-2 antigen of the epitope binning (SARS-CoV-2, UniProt P0DTC2 16-685)", "T4 construct": "also called S1", "test": "epitope binning; competitor 2-2"}
{"binder": "B8", "epitope binning score": 0}
{"binder": "B9", "epitope binning score": 0}
{"binder": "B10", "epitope binning score": 0}
{"target": "T4, SARS-CoV-2 antigen of the epitope …", "test": "epitope binning; competitor 2-5"}
{"binder": "B8", "epitope binning score": 0}
{"binder": "B9", "epitope binning score": 0}
{"binder": "B10", "epitope binning score": 0}
{"target": "T4, SARS-CoV-2 antigen of the epitope …", "test": "epitope binning; competitor 2-6"}
{"binder": "B8", "epitope binning score": 1}
{"binder": "B9", "epitope binning score": 1}
{"binder": "B10", "epitope binning score": 2}
{"target": "T4, SARS-CoV-2 antigen of the epitope …", "test": "epitope binning; competitor 2-8"}
{"binder": "B8", "epitope binning score": 0}
{"binder": "B9", "epitope binning score": 0}
{"binder": "B10", "epitope binning score": 0}
{"target": "T2, SARS-CoV-2 S1 protein", "test": "inhibitor ELISA, competitor ACE2", "units": {"IC50": "nM"}}
{"binder": "B6", "IC50": 4.2}
{"binder": "B7", "IC50": 3.6}
{"binder": "B15", "IC50": 1}
{"binder": "B16", "IC50": 45}
{"target": "T4, SARS-CoV-2 antigen of the epitope …", "test": "epitope binning; competitor 1-16"}
{"binder": "B8", "epitope binning score": 1}
{"binder": "B9", "epitope binning score": 1}
{"binder": "B10", "epitope binning score": 0}
{"target": "T4, SARS-CoV-2 antigen of the epitope …", "test": "epitope binning; competitor 1-32"}
{"binder": "B8", "epitope binning score": 1}
{"binder": "B9", "epitope binning score": 1}
{"binder": "B10", "epitope binning score": 2}
{"target": "T4, SARS-CoV-2 antigen of the epitope …", "test": "epitope binning; competitor 1-35"}
{"binder": "B8", "epitope binning score": 1}
{"binder": "B9", "epitope binning score": 1}
{"binder": "B10", "epitope binning score": 1}
{"target": "T4, SARS-CoV-2 antigen of the epitope …", "test": "epitope binning; competitor 2-11"}
{"binder": "B8", "epitope binning score": 1}
{"binder": "B9", "epitope binning score": 1}
{"binder": "B10", "epitope binning score": 0}
{"target": "T4, SARS-CoV-2 antigen of the epitope …", "test": "epitope binning; competitor CR3022"}
{"binder": "B8", "epitope binning score": 0}
{"binder": "B9", "epitope binning score": 0}
{"binder": "B10", "epitope binning score": 0}
{"target": "T4, SARS-CoV-2 antigen of the epitope …", "test": "epitope binning; competitor Acro mAb"}
{"binder": "B8", "epitope binning score": 1}
{"binder": "B9", "epitope binning score": 1}
{"binder": "B10", "epitope binning score": 0}
{"target": "T2, SARS-CoV-2 S1 protein", "test": "ELISA binding titration on coated antigen", "units": {"EC50": "nM"}}
{"binder": "B12", "EC50": 100}
{"binder": "B14", "EC50": 100}
{"binder": "B6", "EC50": 0.133}
{"binder": "B7", "EC50": 0.612}
{"target": "S protein trimer (SARS-CoV-2, UniProt P0DTC2 14-1208)", "test": "ELISA, plate coated with S protein trimer", "units": {"S Trimer": "nM"}}
{"binder": "B8", "S Trimer": 7.08}
{"binder": "B9", "S Trimer": 0.59}
{"binder": "B10", "S Trimer": 0.64}
{"binder": "B11", "S Trimer": 10.2}
{"target": "T5, SARS-CoV-2 S protein RBD, SPD-C5259 (SARS-CoV-2, UniProt P0DTC2 319-537)", "T5 construct": "domain: RBD", "test": "FACS, inhibition of S protein RBD binding to Vero cells", "units": {"IC50": "nM"}}
{"binder": "B8", "IC50": 19.5}
{"binder": "B9", "IC50": 4.4}
{"binder": "B10", "IC50": 3}
{"binder": "B11", "IC50": 46.3}
